This note sets out measurements from patent US20220125947A1.

In experiment [1] the target is Vg5/Vd2 TCR on SKW3 cells (UniProt A0JD36). Nature of the experiment: flow cytometry DRC binding 37 C, SKW3 cells expressing Vg5/Vd2.
The target in experiment [2] is Vg9/Vd1 TCR on SKW3 cells (UniProt Q99603). Nature of the experiment: flow cytometry DRC binding 37 C, SKW3 cells expressing Vg9/Vd1.
Experiment [3] addresses Vg9/Vd2 TCR on SKW3_4 cells (UniProt Q99603). Kind of experiment: flow cytometry DRC binding 37 C, SKW3_4 cells expressing Vg9/Vd2. (Flow cytometry measures light scatter and fluorescence of single cells or particles in a stream.)

Chain of Vg9/Vd2 TCR on SKW3_4 cells (Q99603 21-122, chain 1 of 2): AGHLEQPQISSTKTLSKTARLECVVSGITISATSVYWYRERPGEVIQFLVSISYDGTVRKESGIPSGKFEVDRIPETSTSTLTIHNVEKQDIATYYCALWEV
Chain of Vg9/Vd2 TCR on SKW3_4 cells (A0JD36 20-115, chain 2 of 2, further chain): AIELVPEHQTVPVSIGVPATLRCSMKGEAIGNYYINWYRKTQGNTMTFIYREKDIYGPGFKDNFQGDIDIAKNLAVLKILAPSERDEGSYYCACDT
Chain of Vg9/Vd1 TCR on SKW3 cells (Q99603 21-122): as the sequence (Q99603 21-122, chain 1 of 2) above
Chain of Vg5/Vd2 TCR on SKW3 cells (A0JD36 20-115): as the sequence (A0JD36 20-115, chain 2 of 2, further chain) above

B1: VG9B189 (antibody, human IgG1, lambda, V domains shown)
VH: EVQLVQSGGGLVKPGASLKLSCAASGFTFSNHGMSWVRQTSDKRLEWVASITRGGDTTYYPDNVKGRFTISRENAKNTLYLQMSSLKSDDTALYYCTRGPLTVGYAMDYWGQGTTVTVSS
VL: QSVVTQPPSASGSPGQSVTISCTGTSSDVGGYNYVSWYQQHPGKAPKLMIYEVSKRPSGVPDRFSGSKSGNTASLTVSGLQAEDEADYYCNSYAGSNNFEVFGGGTKVTVLG
In the case of B1, the Max. Activity (fold over background) in experiment [1] was found to be 21.5; in experiment [2], 1.46; in experiment [3] it was 46.1.

B2: VG9B41 (antibody, human IgG1, kappa, V domains shown)
VH: QVQLQESGPQLVRPGASVKISCKASGYSFTTYWMHWVKQRPGQGLEWIGLIDPSDSETRLNQKFKDKATLTVDKSSSTAYMRLSSPTSEDSAVYYCASNRWLLGWGQGTMVTVSS
VL: EIVLTQTPLSSPVTLGQPASISCRSSQSLVHSDGNTYLSWLHQRPGQPPRLLIYKISNRFSGVPDRFSGSGAGTDFTLKISRVETEDVGVYYCVQTREFPLTFGGGTKVEIKR
As to B2, the Max. Activity (fold over background) in experiment [1] was 16.1; in experiment [2], 2.18; in experiment [3] it was 11.4.

B3: VG9B77 (antibody, human IgG1, kappa, V domains shown)
VH: EVQLVESGAEVMKPGSSVKVSCKASGGTFSSYAISWVRQAPEQGLEWMGGIIPFFGTADYAQKFQGRVTITADKSTNTAYMELTSLRSEDTAVYYCATATVTTDYYYGMDVWGQGTMVTVSS
VL: EIVMTQSPLFSPVTLGQPASISCRSSQSLVHSDGNTYLSWLQQRPGQPPRLLIYEISNRFTGVPDRFSGSGAGTDFTLKISRVEAEDVGVYYCMQARQFPLTFGGGTKVEIKR
On to B3, for which the figures for the Max. Activity (fold over background) in experiment [1], in experiment [2] and in experiment [3] were 148, 137 and 102, respectively.

B4: VG9B136 (antibody, human IgG1, kappa, V domains shown)
VH: QVQLQQSGPGLVKPSQTLSLTCAISGDSVSSNRAAWNWIRQSPSKGLEWLGRTYYRSKWYNEYAASVKSRMSINPDTSKNQFSLQLNSVTPEDTALYYCARDLWELREACDIWGQGTMVTVSS
VL: DIVMTQSPSFLSTFVGDRVTITCRASQGISSYLAWYQQKPGKVPKLLIYVASTLQSGVPSRFSGSGSGTEFTLTISSLQPEDFATYYCQQLNSYPFTFGPGTKVDIKR
Regarding B4, the Max. Activity (fold over background) in experiment [1] is 226; in experiment [2], 288; in experiment [3] it was 181.

B5: VG9B112 (antibody, human IgG1, kappa, V domains shown)
VH: QVQLQQSGPGLVKPSQTLSLTCAISGDSVSSNSAAWNWIRQSPSRGLEWLGGTYYRSKWFNNYAVSVKSRITINPDTSTNQFSLQLNSVTPADTAVYYCARGEWGLRDAFDIWGQGTMVTVSS
VL: DIQMTQSPSFLSASVGDRVIITCRASQGIHSYLAWYQQKPGKVPKLLIYVASTLQSGVPSRFSGSGSGTEFTLTISSLQPEDFATYYCQQLNSYPWTFGQGTKLEIKR
Consider B5, for which the Max. Activity (fold over background) amounted to 217 in experiment [1], 328 in experiment [2] and 227 in experiment [3].

B6: VG9B386 (antibody, human IgG1, kappa, V domains shown)
VH: EVQLVESGGGLVKPGGSLRLSCAASGFTFSSYSMIWVRQAPGKGLEWVSSIGSSSTYIYYADSVRGRFTISRDNAKTSLYLQMNSLRAEDTAMYFCARDGETGGFDYWGQGILVTVSS
VL: EIVMTQSPGTLSLSPGERATLSCRASQSISRSYLAWYQQKPGQPPRLLIYGPSNRATGIPDRFSASGSGTDFTLTNSRLEPEDFAVYYCQQYGSLPLTFGGGTKVEIKR
As to B6, the Max. Activity (fold over background) came out at 92.7 in experiment [1], 389 in experiment [2] and 211 in experiment [3].

B7: VG9B144 (antibody, human IgG1, lambda, V domains shown)
VH: QVQLVQSGAEVKKPGASVKVSCKASGYTFTGYYMHWMRQAPGQGLEWMGWINPNSGATNKEQKFQGRVTMTRDTSISTAYMELSRLRSDDTAVYYCAREDDAFDVWGQGTMVTVSS
VL: SSELTQDPAVSVALGQTVRITCQGDNLRNYYATWFQQKPGQAPVLVFFGKNNRPSGIPDRFSGSSSGDTASLTITGAQAEDEADYYCNSRDSSGNHVVFGGGTKLTVLG
Regarding B7, the results for the Max. Activity (fold over background) in experiment [1], in experiment [2] and in experiment [3] were 194, 205 and 123, respectively.

B8: VG9B387 (antibody, human IgG1, lambda, V domains shown)
VH: EVQLVESGAEVKKPGASVKVSCKASGFTFTGYYLQWVRQAPGQGLEWMGWINPNSGYTDYAQRFQDRVTMTRDTSINTAYMELSRLRSDDTAVYYCARLDDAFDVWGQGTMVTVSS
VL: SYELTQDPAVSVALGQTVRITCQGDSLRNYYAIWYQQKPGQAPVLVIFGKNNRPSGIPDRFSGSSSGTTASLTITGTQAEDEADYYCNSRDSSGNHWVFGGGTKLTVLG
As to B8, the Max. Activity (fold over background) in experiment [1] was 261; in experiment [2] it was 435; in experiment [3], 201.

B9: VG9B379 (antibody, human IgG1, lambda, V domains shown)
VH: EVQLVQSGPEVKKPGASVKVSCKASGYTFTGDYIHWVRQVPGQGLEWMGWINPNSGGTNYAQKFQGRVTMTRDTSISTAFMELSRLRSDDTAVYYCAREGGVAPAAPDAFDIWGQGTMVTVSS
VL: SSELTQDPAVSVALGQTVRITCQGDSLRSYYARWYQQKPGQAPVVVIYGKNNRPSGIPDRFSGSSSGNTASLTITGAQAEDEADYYCNSRDSSGNHRVFGGGTKLTVLG
As to B9, the values for the Max. Activity (fold over background) in experiment [1], in experiment [2] and in experiment [3] were 260, 295 and 160, respectively.

B10: VG9B392 (antibody, human IgG1, lambda, V domains shown)
VH: QVQLVQSGAEVKRPGASAKVSCKTSGYTFTGYYIHWVRQAPGQGLEWMGWINPNSGYTNSAQKFQGRVSMTRDTSISTVYMELSRLRSDDTAVYYCAREDDAFDIWGQGTLVTVSS
VL: SSELTQDPAVSVALGQTVRITCQGDSLRSYYARWYQQKPGQAPVLVIYGKNNRPSGIPDRFSGSSSGDTASLTITGALAEDEADYYCNSRDNSGNHVVFGGGTKVTVLG
As to B10, the Max. Activity (fold over background) in experiment [1] is 281; in experiment [2], 295; in experiment [3] it was 154.

B11: VG9B47 (antibody, human IgG1, kappa, V domains shown)
VH: QVQLVQSGAEVKKPGSSVKVSCKASGGSFSNYAISWMRQAPGQGLEWMGGIIPFFGTPDYAQKFQGRVTITADKSTSTAYMELSSLRSEDTAVYYCSTGGGYGDYDYYYGINVWGQGTMVTVSS
VL: DIVMTQSPLSSPVDLGQPASISCRSSQSLVHSDGNTYLSWLQQRPGQPPRLLIYKISNRFSGVPDRFSGSGAGTDFTLKISRVEAEDVGVYYCMQAKEFPLTLGGGTKVDIKR
Turning to B11, the Max. Activity (fold over background) in experiment [1] is 212; in experiment [2], 308; in experiment [3], 162.

B12: VG9B96 (antibody, human IgG1, kappa, V domains shown)
VH: EVQLVQSGAEVKKPGSSVKVSCKASGGTFSNYAISWVRLAPGQGLEWMGGIIPIFSAGTYAQRFQGRVTITADKSTSTAYMELNSLRSEDTAVYYCSSNSGTYYDYYYGMDVWGQGTMVTVSS
VL: DIVMTQSPLSSHVTLGQPASISCRSSQSLVHSDGNTYLSWLQQRPGQPPRLLIYKIFNRLSGVPDRFSGSGAGTDFTLKISRVEAEDVGVYYCMQAKQFPLTFGGGTKVEIKR
Take B12: the Max. Activity (fold over background) in experiment [1] was 224; in experiment [2], 245; in experiment [3] it was 126.
